Measurements as given in article PMC4346919 (2015).

B1: biotin-labeled ALG-2 [modified: biotin-labeled; biotin-labeled] [human] / GST-SGG-linker-8xHis fused with the eight-residue Sec31A peptide (NPPPPGFI), wild type [human] (parent complex)
chain 1: MAAYSYRPGPGAGPGPAAGAALPDQSFLWNVFQRVDKDRSGVISDTELQQALSNGTWTPFNPVTVRSIISMFDRENKAGVNFSEFTGVWKYITDWQNVFRTYDRDNSGMIDKNELKQALSGFGYRLSDQFHDILIRKFDRQGRGQIAFDDFIQGCIVLQRLTDIFRRYDTDQDGWIQVSYEQYLSMVFSIV
chain 2: NPPPPGFI

Variants of: B1
Experiment: far-Western blot (FW), signal intensity measured with ImageJ; n = 4; read off a plot
chain 2 P5L was tested, and the percent of parent was ~55 % of WT. For chain 2 I8G, the percent of parent was ~9 % of WT. With chain 2 P4A the percent of parent was ~42 % of WT. For chain 2 N1P, the percent of parent was ~100 % of WT.
